The assay deals with T1, human ACE2 protein (GenScript) (human, UniProt Q9BYF1 18-740).
T1 construct: also called angiotensin-converting enzyme 2; hACE2
In words: ELISA, plate-bound ACE2, detection by anti-His antibody. In general terms: In an ELISA, binding on a coated surface is turned into a signal by an enzyme label.

From patent US20250345413A1 (VIRAVAXX, published 2025) come the findings set out here.

T1 sequence (Q9BYF1 18-740 limits assumed): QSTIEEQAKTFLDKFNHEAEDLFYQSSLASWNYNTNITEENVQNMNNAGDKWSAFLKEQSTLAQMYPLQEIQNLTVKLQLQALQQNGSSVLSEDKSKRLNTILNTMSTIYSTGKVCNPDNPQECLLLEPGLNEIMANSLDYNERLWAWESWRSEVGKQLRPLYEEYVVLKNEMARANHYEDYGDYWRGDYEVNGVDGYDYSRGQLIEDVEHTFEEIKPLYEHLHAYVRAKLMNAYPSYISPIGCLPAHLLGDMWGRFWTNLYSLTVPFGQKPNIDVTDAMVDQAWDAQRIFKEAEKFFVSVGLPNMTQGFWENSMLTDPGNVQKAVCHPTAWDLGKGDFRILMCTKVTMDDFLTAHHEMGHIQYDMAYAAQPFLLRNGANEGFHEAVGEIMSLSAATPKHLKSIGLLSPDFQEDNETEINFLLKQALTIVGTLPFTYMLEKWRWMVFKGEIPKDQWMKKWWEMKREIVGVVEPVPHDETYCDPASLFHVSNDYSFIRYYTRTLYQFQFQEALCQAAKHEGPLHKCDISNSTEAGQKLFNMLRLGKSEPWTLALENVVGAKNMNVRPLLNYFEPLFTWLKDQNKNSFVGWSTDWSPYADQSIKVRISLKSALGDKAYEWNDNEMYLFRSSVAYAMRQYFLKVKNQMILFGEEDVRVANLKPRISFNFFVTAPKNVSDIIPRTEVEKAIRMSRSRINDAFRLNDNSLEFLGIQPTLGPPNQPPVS

B1: cysteine-containing, His-tagged recombinant Parietaria allergen, Par j 2 (other)
chain: EEACGKVVQDIMPCLHFVKGEEKEPSKECCSGTKKLSEEVKTTEQKREACKCIVRATKGISGIKNELVAEVPKKCDIKTTLPPITADFDCSKIQSTIFRGYY
notes: also called negative control protein
As to B1, the binding result is given as “no binding”.
